Measurements reported in paper PMC8149123.

What was measured:
Assay in all cases: mitochondrial relocalisation (mito-tag) assay, fluorescence microscopy; ANRP fused to Tom70-HA and mCherry held at the outer mitochondrial membrane in Drosophila embryos (cells at stage 12); ectopic recruitment of endogenous CRISPR Arp3:GFP scored by colocalisation, Pearson coefficient and GFP:mCherry intensity ratio; the paper says the approach does not differentiate between direct and indirect interactions
[1] = molecular target: UAS:mito:mCherry:Scar (D. melanogaster)
[2] = molecular target: UAS:mito:mCherry:Cortactin (D. melanogaster)
Chain of UAS:mito:mCherry:Cortactin (D. melanogaster) (main, as listed by the source): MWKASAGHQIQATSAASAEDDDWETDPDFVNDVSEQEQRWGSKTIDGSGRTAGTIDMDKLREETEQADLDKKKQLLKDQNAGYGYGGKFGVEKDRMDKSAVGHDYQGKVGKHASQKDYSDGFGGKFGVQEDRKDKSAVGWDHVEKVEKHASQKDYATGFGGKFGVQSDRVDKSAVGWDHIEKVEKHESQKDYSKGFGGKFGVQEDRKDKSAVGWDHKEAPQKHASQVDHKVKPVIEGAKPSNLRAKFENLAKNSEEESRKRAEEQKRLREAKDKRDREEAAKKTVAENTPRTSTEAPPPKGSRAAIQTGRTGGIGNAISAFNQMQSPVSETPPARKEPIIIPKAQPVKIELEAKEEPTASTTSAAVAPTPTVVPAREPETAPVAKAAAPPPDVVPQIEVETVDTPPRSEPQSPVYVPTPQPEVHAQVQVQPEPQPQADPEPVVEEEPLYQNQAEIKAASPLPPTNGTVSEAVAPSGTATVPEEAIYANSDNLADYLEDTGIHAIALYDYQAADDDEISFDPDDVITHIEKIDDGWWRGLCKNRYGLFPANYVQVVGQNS

[3] = molecular target: UAS:mito:mCherry:DPod1 (D. melanogaster)
[4] = molecular target: UAS:mito:mCherry:Coronin (D. melanogaster)

Chain of CRISPR Arp3:GFP (P32392 whole entry): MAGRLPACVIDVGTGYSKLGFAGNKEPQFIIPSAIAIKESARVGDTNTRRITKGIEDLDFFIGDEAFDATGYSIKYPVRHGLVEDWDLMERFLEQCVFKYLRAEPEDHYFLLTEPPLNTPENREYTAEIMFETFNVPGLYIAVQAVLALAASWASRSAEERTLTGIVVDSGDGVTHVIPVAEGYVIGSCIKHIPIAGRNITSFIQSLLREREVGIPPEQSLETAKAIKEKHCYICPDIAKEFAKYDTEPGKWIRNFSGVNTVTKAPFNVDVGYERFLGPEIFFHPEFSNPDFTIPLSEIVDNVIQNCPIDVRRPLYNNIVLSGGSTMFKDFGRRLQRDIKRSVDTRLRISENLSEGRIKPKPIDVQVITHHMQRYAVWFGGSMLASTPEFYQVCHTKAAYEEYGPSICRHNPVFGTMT

Substance: CRISPR Arp3:GFP (from UniProt P32392 1-418) (natural protein)
- Pearson correlation coefficient of colocalisation [1]: 0.313
- percent colocalization [1]: 50%
- Pearson correlation coefficient of colocalisation [2]: 0.492
- Pearson correlation coefficient of colocalisation [3]: 0.625
- Pearson correlation coefficient of colocalisation [4]: 0.234
